Results reported in patent CN1997751A (AGENSYS INC, dated 2007).

T1: PSCA (prostate stem cell antigen), human, PSCA v.1 (human, UniProt O43653 12-83)
T1 construct: whole, on cells; also called PSCA变体1; 人PSCA
T1 sequence (looked up): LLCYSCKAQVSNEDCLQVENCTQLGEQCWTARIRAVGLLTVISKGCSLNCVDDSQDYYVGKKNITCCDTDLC

B1: Ha1-1.16 (antibody, V domains shown)
VH: QVQLQQSGPGLVKPSQTLSLTCAISGDSVSSNSAAWNWIRQSPSRGLEWLGRTYYRSKWYNGYAVSVKSRMTINPDTSKNQFSLQLNSVTPEDTAVYYCARERLGELYGMDVWGQGTTVTVSS
VL: QLTQSPDSLAVSLGERATINCKSSQNILYRSSKKNHLVWYQQKPGQPPKLLIYWASTRESGVPARFSGSGSGTDFTLTISTLQAEDVAVYYCQQYYSTPPTFGQGTRLEIKR
notes: ATCC PTA-6698; also called Ha1-1.16.1
B2: Ha1-4.37 (antibody, V domains shown)
VH: PGALQESGPGLVRPSQTLSLTCTVSGGSISSGGTYYWIWIRQHPGKGLEWIGYIYYSGSTYYNPSLKSRVTISVDTSKNQFSLKLSSVTAADTAVYYCARDGITMVRGISGGMDVWGQGTTVTVSS
VL: ASVGDRVTITCRASQSISSHLNWYQQKPGKAPKLLIYAASSLQSGVPSRFSGSGSGTDFTLSISSLQPEDFATYFCQQSYSIPRTFGQGTKVEITR
notes: ATCC PTA-6702
B3: Ha1-5.99 (antibody, IgG2, V domains shown)
VH: QVHLQQWGAGLLKPSETLSLTCAVYGGSFSGYYWSWIRQPPGKGLEWIGEINHSGSTSYKPSLKSRVTVSVDTSKNQFSLKLSYVTAADTAVYYCARDRGDYGDFLFDYWGQGTLVTVSS
VL: SPGERATLSCRASQSIGSTYLAWYQQKPGQAPRLLIYGASSRATGIPERFSGSGSGTDFTLTISGLEPEDFAVFYCQQCGSSPPTFGQGTKVEIKR
notes: ATCC PTA-6703; also called Ha1-5.99.1; HA1-5.99.1
B4: Ha1-4.117 (antibody, V domains shown)
VH: QVQLQESGPGLVKPSQTLSLTCTVSGGSISSGGYYWIWIRQHPGKGLEWIGYIYYNGNTYYNPSLKSRVTMSVDTSKNQFSLKLSSVTAADTAVYYCARDGITMIRGYYYGMDVWGQGTTVTVSS
VL: QLTQSPSSVSASVGDRVTITCRASRGISSWLAWYQQKPGKAPKLLIYTASSLQSGVPSRFSGSGSGTDFTLTISSLQPEDFATYYCQQAYSFPRTFGQGTKVEIKR

Target: T1, PSCA (prostate stem cell antigen), …
Experiment: FACS titration on SW780 cells, sigmoidal dose-response fit (Graphpad Prism)

Going from B1 to B2, the Kd falls from 6910 pM to 230 pM (30-fold). The second binds more tightly here.

B3 and B4 are within 1.5-fold of each other in Kd: 280 pM for the first, 320 pM for the second.
